From US20250136718A1 (MABWELL THERAPEUTICS, published 2025) come the findings set out here.

The target of experiment [1] is T1, cynomolgus monkey TMPRSS6 expressed on HEK293T cells, CynoTMPRSS6-(His)6 (cynomolgus monkey, UniProt Q8IU80 10-811 (human entry)).
T1 chain: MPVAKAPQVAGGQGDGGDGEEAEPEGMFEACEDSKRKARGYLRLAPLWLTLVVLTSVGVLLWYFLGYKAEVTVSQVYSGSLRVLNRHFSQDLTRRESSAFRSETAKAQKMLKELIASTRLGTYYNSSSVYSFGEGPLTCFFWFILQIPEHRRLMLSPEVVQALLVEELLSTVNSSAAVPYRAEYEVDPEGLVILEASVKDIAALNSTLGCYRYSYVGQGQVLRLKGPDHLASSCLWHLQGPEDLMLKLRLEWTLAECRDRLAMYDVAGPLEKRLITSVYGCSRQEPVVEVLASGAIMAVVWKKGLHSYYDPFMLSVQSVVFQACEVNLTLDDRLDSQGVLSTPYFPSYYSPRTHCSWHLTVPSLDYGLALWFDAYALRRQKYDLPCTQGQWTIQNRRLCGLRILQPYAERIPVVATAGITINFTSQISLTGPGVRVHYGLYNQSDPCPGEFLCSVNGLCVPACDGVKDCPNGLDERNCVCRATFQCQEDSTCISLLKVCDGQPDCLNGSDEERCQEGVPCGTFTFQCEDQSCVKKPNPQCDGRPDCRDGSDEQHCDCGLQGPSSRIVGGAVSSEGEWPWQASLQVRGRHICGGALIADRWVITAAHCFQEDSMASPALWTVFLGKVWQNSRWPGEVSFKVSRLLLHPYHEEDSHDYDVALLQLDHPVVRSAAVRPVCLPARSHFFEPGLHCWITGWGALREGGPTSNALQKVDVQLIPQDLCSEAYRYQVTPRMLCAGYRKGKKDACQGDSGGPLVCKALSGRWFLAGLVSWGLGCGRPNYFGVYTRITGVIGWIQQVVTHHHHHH
Put plainly: summary of Example 4 (FACS, cell surface ELISA). The method, then:
Selected anti-TMPRSS6 antibodies were tested to determine whether any are capable of binding to TMPRSS6 from mouse and/or cynomolgus monkey. HEK293T cells stably expressing human TMPRSS6 (HuTMPRSS6-(His)₆) (generated by LakePharma Inc as described above), HEK293T cells stably expressing mouse TMPRSS6 (MoTMPRSS6-(His)₆) (SEQ ID NO: 98) (generated by LakePharma Inc as described above) and HEK293T cells transiently expressing cynomolgus monkey TMPRSS6 (CynoTMPRSS6-(His)₆) (SEQ ID NO: 99) (generated in house) were collected. HEK293T cells stably expressing human TMPRSS6 were used as a positive control and HEK293T cells were used as a negative control (as described above). Cells were blocked with dPBS+3% BSA before incubation with anti-TMPRSS6 antibodies diluted in dPBS+3% BSA. After incubation, cells were washed with dPBS and followed by another incubation with goat anti-mouse IgG conjugated with AlexaFluor-488 as a 2° antibody (Invitrogen). At last, cells were washed with dPBS to remove unbound antibody, re-suspended with dPBS+1 mM EDTA, and then subjected to FACS analysis using a NOVOCYTE® Flow Cytometer (ACEA Biosciences, Inc., San Diego CA). Bound antibody was determined by excitation at 488 nm and measurement of emission (FITC-A) at 530 nm. Results for these assays are shown in histogram plots in FIGS. 4A-4I.
(§1) HEK293T cells stably expressing mouse TMPRSS6 (generated by LakePharma Inc as described above, FIGS. 4J, 4L, 4N, 4P, 4R, 4T) or cynomolgus monkey (generated in house as described above, FIGS. 4K, 4M, 4O, 4Q, 4S, 4U) were fixed with methanol (100%), and washed with dPBS (Dulbecco's phosphate-buffered saline, Corning Cellgro) before incubation with various concentrations of anti-TMPRSS6 antibodies and their humanized variants diluted in BSA medium (DMEM+1% Pen/Strep+10 mM HEPES+1 mg/ml BSA (Sigma-Aldrich)). Purified mouse IgG (FIGS. 4J-4O) or Human IgG1 (FIGS. 4P-4U) was used as a control.

For experiment [2], the target named is T2, cynomolgus monkey TMPRSS6 expressed on HEK293T cells, CynoTMPRSS6-(His)6.
T2 chain: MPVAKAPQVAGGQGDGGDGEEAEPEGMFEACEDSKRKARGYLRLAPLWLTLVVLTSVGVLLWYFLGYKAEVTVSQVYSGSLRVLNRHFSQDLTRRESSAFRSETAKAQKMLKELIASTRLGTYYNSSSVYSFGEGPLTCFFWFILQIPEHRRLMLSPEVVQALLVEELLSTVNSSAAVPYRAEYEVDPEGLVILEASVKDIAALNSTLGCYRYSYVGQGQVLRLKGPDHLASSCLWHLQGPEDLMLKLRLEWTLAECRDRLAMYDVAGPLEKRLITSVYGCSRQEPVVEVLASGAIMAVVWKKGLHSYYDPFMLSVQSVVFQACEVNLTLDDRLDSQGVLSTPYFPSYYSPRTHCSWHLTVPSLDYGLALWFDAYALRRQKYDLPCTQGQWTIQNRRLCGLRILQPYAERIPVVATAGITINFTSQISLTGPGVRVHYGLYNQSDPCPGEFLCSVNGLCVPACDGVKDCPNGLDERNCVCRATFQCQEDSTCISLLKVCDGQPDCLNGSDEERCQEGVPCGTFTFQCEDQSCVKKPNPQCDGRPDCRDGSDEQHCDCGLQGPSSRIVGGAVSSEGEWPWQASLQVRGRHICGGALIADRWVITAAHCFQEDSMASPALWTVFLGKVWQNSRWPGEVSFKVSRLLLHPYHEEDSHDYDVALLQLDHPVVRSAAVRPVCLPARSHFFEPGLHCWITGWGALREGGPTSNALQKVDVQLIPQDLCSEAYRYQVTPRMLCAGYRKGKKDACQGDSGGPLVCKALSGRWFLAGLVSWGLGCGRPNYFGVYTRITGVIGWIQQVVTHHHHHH
The experiment is described as follows: cell surface ELISA.

The target in experiment [3] is T1, cynomolgus monkey TMPRSS6 expressed on …. Put plainly: summary of Example 4 (cell surface ELISA). The method, then:
as §1, with “control. After incubation, cells were washed with BSA medium and then incubated with goat anti-mouse (Invitrogen, FIGS. 4J-4O) or anti-human (Millipore, FIGS. 4P-4U) IgG conjugated with HRP as a 2° antibody. Finally, cells were washed with dPBS to remove unbound antibody and color developed with ELISA liquid substrate (Sigma-Aldrich), followed by stopping the reaction with addition of the same volume of […] 1M H₂SO₄. Bound antibody was measured by absorbance at OD₄₅₀ₙₘ.” for “control.”

Experiment [4] has as its target T2, cynomolgus monkey TMPRSS6 expressed on …. Put plainly: cell surface ELISA. (ELISA stands for enzyme-linked immunosorbent assay.)

Read-outs that look alike come from different tables or passages of the source.

B1: MWTx-001 anti-TMPRSS6 monoclonal antibody (antibody, mouse IgG2a, kappa, V domains shown)
VH: QVQLQQPGAELAKPGASVKMSCKASGYTFTSYWITWVKQRPGQDLEWIGNIYPGSGSTYYNEKFKSKATLTVDTSSRTAYMQLSSLTSADSAVYYCAPYDSDYAMDYWGQGTSVTVSS
VL: DIKMTQSPSSMYASLGERVTITCKASQDINNYLSWFQQKPGKSPKTLIYRANRLVDGVPSRVSGSGSGQDYSLTISSLEYEDVGIYFCLQYDEFPLTFGAGTKLELKR
notes: Mouse monoclonal antibody from hybridoma (ATCC PTA-126759)
Turning to B1, the binding result in experiment [1] is recorded as “binds”. The EC50 in experiment [2] came out at 0.1 µg/mL.

B2: humanized anti-TMPRSS6 antibody variant hzMWTx-003 Var (antibody, human IgG1, kappa, L234A L235A, V domains shown)
VH: QVQLVQSGAEVKKPGASVKVSCKASGFNIEDYYMHWVRQAPGQRLEWMGRIDPEDAETTYSPKFQGRVTIIPDTSANTAYMELSSLRSEDTAVYYCARSIYLDPMDYWGQGTLVTVSS
VL: DIQMTQSPKSLSASVGDRVTITCRASQDVTTALAWYQQKPGQSPKLLIYWATTRHSGVPSRFSGSGSGTDFTLTISSLQPEDFATYYCQQHYSTPYTFGQGTKLEIKR
notes: Human IgG1 / kappa
Regarding B2, the binding result in experiment [3] is recorded as “binds”. In experiment [4], this molecule yielded a half-maximal effective concentration (EC50) of 0.03 µg/mL.

B3: humanized anti-TMPRSS6 antibody variant hzMWTx-002 Var (antibody, human IgG1, kappa, N297A, V domains shown)
VH: EVQLVQSGAEVKKPGASVKVSCKASGFNIKDYYIHWVRQATGQGLEWMGRIDPEDAESEYAPKFQGRVTITADTSTDTAYMELSSLRSEDTAVYYCTRGDSMMVTYFDYWGQGTLVTVSS
VL: DIQMTQSPSSLSASVGDRVTITCKASQDVSTAVAWYQQKPGKAPKLLIYWAFTRHTGVPSRFSGSGSGTDYALTISSLQPEDFATYYCQQHYRSPWTFGGGTKVEIKR
notes: Human IgG1 / kappa
With B3, the binding result in experiment [3] is given as “binds”. This molecule also registered a 50% effective concentration (EC50) in experiment [4] of 0.06 µg/mL.

B4: humanized anti-TMPRSS6 antibody variant hzMWTx-001 Var (antibody, human IgG1, kappa, N297A, V domains shown)
VH: EVQLVQSGAEVKKPGASVKVSCKASGYTFTSYWITWVRQAPGQRLEWIGNIYPGSGSTYYNEKFKSKATITRDTSSRTAYMELSSLRSEDTAVYYCAPYDADYAMDYWGQGTLVTVSS
VL: DIQMTQSPSSLSASVGDRVTITCKASQDISNYLSWFQQKPGKAPKLLIYRANRLVEGVPSRFSGSGSGTDFTLTISSLQPEDFATYFCLQYDEFPLTFGGGTKVEIKR
notes: Human IgG1 / kappa
Turning to B4, the binding result in experiment [3] is “binds”. In experiment [4], this molecule came in with a concentration for a half-maximal effect (EC50) of 0.003 µg/mL.

B5: MWTx-002 anti-TMPRSS6 monoclonal antibody (antibody, mouse IgG2b, kappa, V domains shown)
VH: EVQLQQSGAELVKPGASVKLSCTASGFNIKDYYIHWVKERTEQGLEWFGRIDPEDGESEYAPKFQGKATLTADTSSNTAYLQLSSLTSEDTAVYYCTRGDSMMVTYFDYWGQGTTLTVSS
VL: DIVMTQSHKFMSTSVGDRVSITCKASQDVSTAVAWYQQKPGQSPKLLIYWAFTRHTGVPDRFTSTGSGTDYALTISSVQAEDLALYYCQQHYRSPWTFGGGTKLEIKR
notes: Mouse monoclonal antibody from hybridoma (ATCC PTA-126760)
As to B5, the binding result in experiment [1] was “binds”. A half-maximal effect in experiment [2] (EC50) was put at 0.06 µg/mL.

B6: MWTx-003 anti-TMPRSS6 monoclonal antibody (antibody, mouse IgG2b, kappa, V domains shown)
VH: EVQLQQSGAELVKPGASVKLSCTASGFNIEDYYIHWVKERTEQGLEWIGRIDPEDGETTYAPQFQGKATIIPDTSSNTAYMQLSSLTSEDAAVYYCARSIYLDPMDYWGQGTSVTVSS
VL: DIVMTQSHKFMSTSVGDRVSITCKASQDVTTAVAWYQQKPGQSPKILIYWATTRHTGVPDRFTGSISGTTYILTISSVQAEDLALYYCQQHYSTPYTFGGGTKLEIKR
notes: Mouse monoclonal antibody from hybridoma (ATCC PTA-126761); The recombinant version r4K12B has the same HC and LC; also called r4K12B; recombinant MWTx-003
For B6, the binding result in experiment [1] is listed as “binds”. For the same molecule, the EC50 in experiment [2] turned out to be 0.09 µg/mL.

As usually defined, the EC50 is the midpoint of the concentration-response curve.
